Where no end group is shown, it is not given here. fluorescein = fluorescein-aminocaproic acid; Ahx = NCCCCCC(=O)O

The test has as its target EP12, C-terminal region of MamE containing only the PDZ domains (Magnetospirillum magneticum AMB-1). The test can be described thus: fluorescence polarisation. (Fluorescence polarisation rises when a labelled molecule tumbles more slowly, as on binding a larger partner.)

B1: PDZ1* peptide (fluorescein-labelled, phage-derived ligand of MamE PDZ1) (peptide)
peptide: {fluorescein-Ahx}-WSQEMEDWFWQMPLSG
B1 had a fold tighter binding than the PDZ2 peptide of 10 fold.

(Values after article doi:10.1101/047555.)
